Residue numbers refer to the chain shown, from its start.
B1: C0021158: anti-ARG2 antibody, second generation lead, VH SEQ ID NO: 272, VL SEQ ID NO: 277 (antibody, listed as Homo sapiens, V domains shown)
VH: EVQLLESGGGLVQPGGSLRLSCAASGFTFRYEVAAWVRQAPGKGLEWVSAISGPIPKGYYADSVKGRFTISRDNSKNTLYLQMNSLRAEDTAVYYCARLRADLGLYMDLWGRGTLVTVPS
VL: QSVLTQPPSVSAAPGQKVTISCSGSSSNIGNHYVSWYQQLPGTAPKLLIYDNSERTAGVPDRFSGSKSGTSATLGITGLQTGDEADYYCGTWDELTSNLVFGGGTKLTVL
modifications: C0021158
B2: C0021181: anti-ARG2 antibody, VH SEQ ID NO: 342, VL SEQ ID NO: 347 (antibody, listed as Homo sapiens, V domains shown)
VH: EVQLLESGGGLVRPGGSLRLSCAASEFTFRYDYHVWVRQAPGKGLEWVSAISGSGGSTYYADSVKSRFTISRDNSKNTLYLQMNSLRAEDTAVYYCARLRADLGLYMDLWGRGTLVTVSS
VL: B1 VL with T19A, I20V, N31S, A57S, V59I, K106R
modifications: C0021181

Molecular target: T1, human ARG2 (Homo sapiens, UniProt P78540)
T1 construct: made in house
T1 sequence (P78540 with tags, fused parts or gaps): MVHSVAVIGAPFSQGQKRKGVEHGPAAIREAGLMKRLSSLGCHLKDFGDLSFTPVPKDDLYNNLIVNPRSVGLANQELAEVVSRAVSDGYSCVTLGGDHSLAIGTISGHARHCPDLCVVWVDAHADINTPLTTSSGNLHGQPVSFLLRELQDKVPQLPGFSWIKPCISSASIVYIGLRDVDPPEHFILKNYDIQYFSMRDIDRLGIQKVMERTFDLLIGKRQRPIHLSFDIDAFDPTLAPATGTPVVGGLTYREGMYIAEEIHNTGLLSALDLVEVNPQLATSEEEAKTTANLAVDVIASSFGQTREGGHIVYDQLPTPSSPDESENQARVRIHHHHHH
Test: X-ray co-crystal structures of ARG2-Fab complexes, buried surface area of epitope residues
Settings: total of interface residues
Description: The construct used for crystal trials was ARG2 (23-354) containing a C-terminal Gly3 linker and His10-tag (ARG2+C0020187, SEQ ID NO: 355: huARG2-His10) or a simple C-terminal His6-tag (ARG2+C0021181 and ARG2+C0021158, SEQ ID NO: 357: huARG2-His6). Crystals suitable for structure determination were obtained using the sitting drop methodology. For ARG2+C0020187, 0.2 μl of complex solution (2.0 mg/ml, ARG2:Fab=3:1, purified by gel filtration) were mixed with 0.1 μl of crystallisation solution containing 2 M (NH4)2SO4. Round, disc-shaped crystals (60×60×20 μm) appeared after 2 days. For ARG2+C0021181, 0.5 μl of complex solution (6.3 mg/ml) were mixed with 0.5 μl of a crystallisation solution containing 100 mM MMT (malic acid:MES:tris=1:2:2) pH 5.0, 20% glycerol, 10% PEG4000, 15 mM NaNO3, 15 mM Na2HPO4, 15 mM (NH4)2SO4. Hexagonal disc-shaped crystals (100×100×20 μm) appeared after 2 days and reached their final size after a week. For ARG2+C0021158, 0.25 μl of complex solution (7.0 mg/ml, containing 20% diluted microseeds of an ARG2+C0021181 crystal) were mixed with 0.25 μl of a crystallisation solution containing 2 M (NH4)2SO4. Crystals of irregular shape (60×60×60 μm) appeared after 2 days. For the ARG2+C0020187 and ARG2+C0021158 crystals, 3 M (NH4)2SO4 and 5% glycerol were added for cryo-protection, after which the crystals were cryo-cooled by plunging them into liquid N2. Data sets were collected at DLS, beamline i04-1 (ARG2+C0020187) or BESSY II, HZB, beamline MX-14-1 (ARG2+C0021181 and ARG2+C0021158). The crystals of ARG2+C0020187 diffracted up to 3.25 Å in space group P 65 2 2 with unit cell parameters a=b=138 Å, c=551 Å.
The structures were solved by molecular replacement using Phaser in the CCP4 program suite using the reported structure of ARG2 (PDB-ID 4HZE) and previously solved high-resolution structures of the individual Fabs in the molecular replacement search. For ARG2+C0020187 the asymmetric unit contained three copies each of ARG2 and the Fab, respectively, with the CL and CH domains being present in different orientations, one of pair which was poorly defined in the electron density. For ARG2+C0021181 and ARG2+C0021158 the asymmetric units contained one copy of ARG2 and one copy of the Fab, however for ARG2+C0021181 only the VL and VH domains of the Fab were well defined, with CL and CH domains most likely being present in two orientations (reflected by the increased B factor and overall worse electron density). Automated and manual refinement was then performed by alternating between using REFMAC5 (with twin- and TLS refinement turned on towards finalising the structures for ARG2+C0021181 and ARG2+C0021158) and COOT, respectively. […]

| Molecule | % buried (C0021158 complex) | ASA (solvent accessible surface area) (C0021158 complex) | BSA (buried surface area) (C0021158 complex) | % buried (C0021181 complex) |
| --- | --- | --- | --- | --- |
| B1 | 50% | 2012.6 Å^2 | 1000.3 Å^2 |  |
| B2 |  |  |  | 50% |

From US20220403048A1, “BINDING MOLECULES TO ARGINASE II [ARG2]” (Cancer Research Technology Limited, priority 2019, published 2022)
